Measured values: patent US8333970B2, “Methods of monitoring the efficacy of anti-CD40 antibodies in treating a subject having an inflammatory or autoimmune disease” (Novartis AG, priority 2005, dated 2012)
Entries after “also recorded” stand apart in the source; their conditions may differ.

B1: CD40L: CD40 ligand used as stimulus, presented on transfected, formaldehyde fixed CHO cells (protein)
chain: MIETYNQTSPRSAATGLPISMKIFMYLLTVFLITQMIGSALFAVYLHRRLDKIEDERNLHEDFVFMKTIQRCNTGERSLSLLNCEEIKSQFEGFVKDIMLNKEETKKENSFEMQKGDQNPQIAAHVISEASSKTTSVLQWAEKGYYTMSNNLVTLENGKQLTVKRQGLYYIYAQVTFCSNREASSQAPFIASLCLKSPGRFERILLRAANTHSSAKPCGQQSIHLGGVFELQPGASVFVNVTDPSQVSHGTGFTSFGLLKL
modifications: expressed on fixed CHO cells

Tests used:
cell-surface CD40 = cell-surface CD40 (Homo sapiens, UniProt P25942); test: Flow cytometric (FACS) assay of CD40 binding and CD40-ligand blocking
cell-surface CD40, sequence (P25942 21-277): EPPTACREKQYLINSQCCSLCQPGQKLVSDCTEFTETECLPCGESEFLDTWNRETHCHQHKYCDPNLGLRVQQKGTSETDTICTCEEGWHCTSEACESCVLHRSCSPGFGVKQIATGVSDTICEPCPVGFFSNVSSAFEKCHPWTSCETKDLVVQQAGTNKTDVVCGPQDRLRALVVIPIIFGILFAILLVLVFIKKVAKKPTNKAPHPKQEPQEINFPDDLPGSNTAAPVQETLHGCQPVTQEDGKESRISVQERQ
Source text: (§1) 2, 2000, and PCT International Application No. PCT/US01/30857, also titled “Human Anti-CD40 Antibodies,” filed Oct. 2, 2001, both of which are herein incorporated by reference in their entirety.

[1] = system: primary cancer cells from NHL patients; test: ADCC on primary cancer cells; format: cell-based, human; details: in vitro
Source text: (§2) 4, 2003, Nov. 26, 2003, and Apr. 27, 2004, and assigned U.S. Patent Application Nos. 60/517,337 , 60/525,579, and 60/565,710, respectively, and International Patent Application No. PCT/US2004/037152, also entitled “Antagonist Anti-CD40 Monoclonal Antibodies and Methods for Their Use,” filed Nov. 4, 2004; the contents of each of which are herein incorporated by reference in their entirety.

[2] = system: B cells from normal human subjects; test: In vitro proliferation of normal human B cells / lymphocytes; format: cell-based
Source text: as §1, §2

soluble CD40 = soluble CD40 (Homo sapiens, UniProt P25942); test: ELISA-type assay, binding to soluble CD40; details: ELISA-type assays
soluble CD40, sequence (P25942 21-193 limits assumed): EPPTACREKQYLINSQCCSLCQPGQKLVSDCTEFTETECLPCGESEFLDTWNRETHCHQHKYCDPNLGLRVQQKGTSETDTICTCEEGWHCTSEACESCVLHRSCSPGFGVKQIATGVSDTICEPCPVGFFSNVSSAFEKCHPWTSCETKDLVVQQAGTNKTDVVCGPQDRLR
Source text: as §1

[3] = system: CD40-expressing target cells; test: Antibody dependent cellular cytotoxicity (ADCC); format: cell-based; details: native antibodies
Source text: as §1
Clones from 7 other hybridomas were identified as having antagonistic activity. Based on their relative antagonistic potency and ADCC activities, two hybridoma clones were selected for further evaluation (Table 1 below). They are named 131.2F8.5.9 (5.9) and 153.8E2.D10.D6.12.12 (12.12).

[4] = system: cancer cells from NHL and CLL patients; test: In vitro CD40 ligand-mediated proliferation of patient cancer cells; format: cell-based, human
Source text: as §2

normal B cells = test: CD40L-induced cytokine secretion, Meso Scale Discovery multi-array; format: cell-based, human; details: normal B cells
Protocol: (§3) Cells (1×10^5 cells per well) were cultured in a 96-well plate in the presence or absence of CD40L ([…], formaldehyde fixed CHO cells, 2×10^5 per well). […] Production of hIL-6, hIL-8, hIL-10, hTNF-α; hGM-CSF, hIL-1b, hIL-12p70, MCP-1, and MIP-1β beta was measured by Meso Scale Discovery® multi-array system (Meso Scale Discovery, Gaithersburg, Md.).

monocytes = test: as above; format: cell-based, human; details: monocytes, Donor 1, 24 hours
Protocol: as §3

Molecule | specific binding to human CD40 (cell-surface CD40; FACS analysis) | displacement of CD40-ligand pre-bound to cell surface CD40 (cell-surface CD40; flow cytometric assays) | prevention of CD40-ligand binding to cell-surface CD40 (cell-surface CD40; flow cytometric assays) | killing of primary cancer cells by ADCC [1] | effect on CD40 ligand-mediated proliferation of normal B cells ([2]; in vitro) | induction of proliferation of human lymphocytes (agonist activity) ([2]; lymphocytes from normal subjects, antibody alone) | binding to soluble CD40 (soluble CD40) | ADCC activity, killing of CD40-expressing target cells [3] | CD40 ligand-mediated proliferation of cancer cells [4] | CD40L-induced hGM-CSF secretion, folds of induction over background (normal B cells; Donor 1, 24 hours) | CD40L-induced hIL-1b secretion, folds of induction over background (normal B cells; Donor 1, 24 hours) | CD40L-induced hIL-12p70 secretion, folds of induction over background (normal B cells; Donor 1, 24 hours) | CD40L-induced hIL-1b secretion, folds of induction over background (normal B cells; Donor 2, 24 hours) | CD40L-induced hGM-CSF secretion, folds of induction over background (normal B cells; Donor 3, 24 hours) | CD40L-induced hIL-1b secretion, folds of induction over background (normal B cells; Donor 3, 24 hours) | CD40L-induced hIL-12p70 secretion, folds of induction over background (normal B cells; Donor 3, 24 hours) | CD40L-induced hGM-CSF secretion, folds of induction over background (monocytes) | CD40L-induced hIL1-b secretion, folds of induction over background (monocytes) | CD40L-induced hIL-12p70 secretion, folds of induction over background (monocytes)
CHIR-5.9: fully human anti-CD40 monoclonal antibody of the IgG1 isotype, hybridoma 131.2F8.5.9, ATCC PTA-5542, SEQ ID NO:6 and 7 | bind specifically to human CD40 | displace the pre-bound CD40-ligand; also recorded: can compete off CD40-ligand pre-bound to cell surface CD40 | prevent the binding of CD40-ligand to cell-surface CD40; also recorded: can prevent CD40-ligand binding | kill primary cancer cells from NHL patients by ADCC | act as antagonist anti-CD40 antibodies; also recorded: inhibit in vitro CD40 ligand-mediated proliferation of normal B cells | do not induce strong proliferation | bind soluble CD40 | have ADCC activity; also recorded: able to kill CD40-expressing target cells | inhibiting in vitro CD40 ligand-mediated proliferation of cancer cells from NHL and CLL patients | – | – | – | – | – | – | – | – | – | –
B1 | – | – | – | – | – | – | – | – | – | no induction | no induction | no induction | no induction | no induction | no induction | no induction | no induction | no induction | no induction
